How the values were obtained:
[1] = system: O=[N+]([O-])c1ccc(O[C@@H]2O[C@H](CO)[C@@H](O)[C@H](O)[C@H]2O)cc1; experiment: purified protein; conditions: 50 mM potassium phosphate pH 7.2, 52 °C, 5 min, text b17 prints a different Km than Tables 1-3
[2] = system: O=[N+]([O-])c1ccc(O[C@@H]2O[C@H](CO)[C@H](O)[C@H](O)[C@H]2O)cc1; experiment: purified protein; conditions: 50 mM potassium phosphate pH 7.2, 52 °C, 5 min

H0HC94 (Agrobacterium tumefaciens 5A)
Km [1]: 3.09 ± 0.40 mM | kcat [1]: 278 ± 4 s⁻¹ | kcat/Km [1]: 89900 M⁻¹ s⁻¹ | Km [2]: 12.93 ± 2.00 mM | kcat [2]: 215 ± 7 s⁻¹ | kcat/Km [2]: 16600 M⁻¹ s⁻¹

Reference: article PMC4802596, “Using the β-glucosidase catalyzed reaction product glucose to improve the ionic liquid tolerance of β-glucosidases” (Biotechnology for Biofuels, 2016)
